The target of assay [1] is column ligand of the FLAG-Tag system (Prot).
The target in assay [2] is column ligand of the Strep-Tag system (Prot).

What is called Kd is the constant that tells how readily two partners part at equilibrium. The low end stands for higher affinity, the high end for lower affinity. In assay [1], FLAG-Tag (peptide) registered a Capacity of 0.6 mg/mL and a Kd of 1 nM.

Consider Strep-Tag (peptide), for which, in assay [2], the Capacity worked out at 6 mg/mL and the Kd is 1000 nM.

The values above are taken from US20240417426A1.
